# Legend:
# EPHB2 = EPHB2 (UniProt P29323); assay: phosphorylation enrichment, bacterial display (enrichment ratio); higher = better substrate or ligand; peptides without Tyr show the background
# Fer (mouse) = assay: as above
# EPHB1 = EPHB1 (UniProt P54762); assay: as above
# Fes = Fes (UniProt P07332); assay: as above
# Fyn = Fyn (UniProt P06241); assay: as above
# Jak2 = Jak2 (UniProt O60674); assay: as above
# AncSZ = assay: as above
# MERTK = MERTK (UniProt Q12866); assay: as above
# FGFR3 = FGFR3 (UniProt P22607); assay: as above
# c-Abl (mouse) = assay: as above
# FGFR1 = FGFR1 (UniProt P11362); assay: as above
# Hck = Hck (UniProt P08631); assay: as above
# c-Src = assay: as above
# SHP2-C SH2 = assay: SH2 binding enrichment of the phosphorylated peptide, bacterial display (enrichment ratio); higher = better substrate or ligand; peptides without Tyr show the background
# c-Src SH2 = assay: as above
# Grb2 SH2 = Grb2 SH2 (UniProt P62993); assay: as above
# 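Throughout, for SH2 binding enrichment of the phosphorylated peptide, bacterial display: peptide library displayed on the E. coli surface as eCPX fusions, selected cells deep-sequenced, score is each peptide's frequency after selection divided by its frequency in the input.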
# 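Throughout, for phosphorylation enrichment, bacterial display: 11-residue human phosphosite peptides and single-mutation variants displayed on the E. coli surface, counted by deep sequencing, each peptide's frequency after selection divided by its frequency in the unselected input library; frequency after pTyr selection over input frequency; kinase dosed for 20-30% of maximal phosphorylation in three min.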
# Jak2, sequence (O60674 whole entry, looked up): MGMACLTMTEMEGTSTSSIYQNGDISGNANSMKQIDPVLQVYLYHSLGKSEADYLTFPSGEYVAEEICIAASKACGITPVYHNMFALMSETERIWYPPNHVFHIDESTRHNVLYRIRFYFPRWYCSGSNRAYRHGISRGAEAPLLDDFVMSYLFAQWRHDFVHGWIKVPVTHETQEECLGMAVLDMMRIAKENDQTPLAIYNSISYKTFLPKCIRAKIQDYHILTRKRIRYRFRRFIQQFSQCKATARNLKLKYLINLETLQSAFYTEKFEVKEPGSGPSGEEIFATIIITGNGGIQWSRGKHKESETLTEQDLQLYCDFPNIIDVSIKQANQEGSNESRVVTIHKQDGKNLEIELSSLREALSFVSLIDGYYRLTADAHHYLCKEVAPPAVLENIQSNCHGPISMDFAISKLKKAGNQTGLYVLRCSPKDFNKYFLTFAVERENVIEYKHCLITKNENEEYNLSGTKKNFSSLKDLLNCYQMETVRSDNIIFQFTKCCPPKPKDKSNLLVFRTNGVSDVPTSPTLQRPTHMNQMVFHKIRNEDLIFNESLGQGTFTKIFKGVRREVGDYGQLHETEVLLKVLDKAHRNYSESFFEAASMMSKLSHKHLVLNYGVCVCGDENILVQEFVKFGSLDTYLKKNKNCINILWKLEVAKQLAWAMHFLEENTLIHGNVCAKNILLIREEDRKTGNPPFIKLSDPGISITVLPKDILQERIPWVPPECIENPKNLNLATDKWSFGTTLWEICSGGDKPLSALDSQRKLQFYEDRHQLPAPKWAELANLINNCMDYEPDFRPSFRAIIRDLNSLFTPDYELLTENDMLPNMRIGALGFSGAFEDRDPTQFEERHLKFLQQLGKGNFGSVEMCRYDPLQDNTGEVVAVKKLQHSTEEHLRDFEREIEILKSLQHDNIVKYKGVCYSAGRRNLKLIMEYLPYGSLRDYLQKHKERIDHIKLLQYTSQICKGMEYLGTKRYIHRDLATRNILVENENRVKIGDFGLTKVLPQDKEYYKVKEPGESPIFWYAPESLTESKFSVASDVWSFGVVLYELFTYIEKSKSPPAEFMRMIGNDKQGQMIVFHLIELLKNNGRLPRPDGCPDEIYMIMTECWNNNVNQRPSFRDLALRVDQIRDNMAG
# Fes, sequence (P07332 whole entry, looked up): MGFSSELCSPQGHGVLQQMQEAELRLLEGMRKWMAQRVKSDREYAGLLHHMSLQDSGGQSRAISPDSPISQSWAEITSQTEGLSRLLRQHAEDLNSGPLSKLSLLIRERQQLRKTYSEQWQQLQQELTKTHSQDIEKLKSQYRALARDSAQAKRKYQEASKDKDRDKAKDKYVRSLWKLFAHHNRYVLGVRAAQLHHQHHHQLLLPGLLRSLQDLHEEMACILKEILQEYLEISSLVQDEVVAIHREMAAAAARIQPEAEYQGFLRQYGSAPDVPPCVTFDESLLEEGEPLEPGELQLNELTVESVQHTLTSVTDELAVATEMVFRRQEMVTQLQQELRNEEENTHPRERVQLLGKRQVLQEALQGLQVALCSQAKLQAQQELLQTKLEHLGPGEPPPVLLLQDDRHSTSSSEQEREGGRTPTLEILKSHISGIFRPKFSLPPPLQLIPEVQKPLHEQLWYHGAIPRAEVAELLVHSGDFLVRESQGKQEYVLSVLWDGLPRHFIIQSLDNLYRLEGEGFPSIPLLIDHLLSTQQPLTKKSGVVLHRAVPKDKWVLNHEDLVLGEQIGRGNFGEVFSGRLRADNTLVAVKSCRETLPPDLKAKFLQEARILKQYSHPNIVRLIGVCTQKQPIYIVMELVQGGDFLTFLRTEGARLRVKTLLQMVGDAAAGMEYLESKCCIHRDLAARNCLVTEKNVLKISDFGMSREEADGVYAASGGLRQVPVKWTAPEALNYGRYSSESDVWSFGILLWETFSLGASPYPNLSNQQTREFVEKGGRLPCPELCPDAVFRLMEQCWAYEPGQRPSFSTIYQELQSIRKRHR
# Hck, sequence (P08631 whole entry, looked up): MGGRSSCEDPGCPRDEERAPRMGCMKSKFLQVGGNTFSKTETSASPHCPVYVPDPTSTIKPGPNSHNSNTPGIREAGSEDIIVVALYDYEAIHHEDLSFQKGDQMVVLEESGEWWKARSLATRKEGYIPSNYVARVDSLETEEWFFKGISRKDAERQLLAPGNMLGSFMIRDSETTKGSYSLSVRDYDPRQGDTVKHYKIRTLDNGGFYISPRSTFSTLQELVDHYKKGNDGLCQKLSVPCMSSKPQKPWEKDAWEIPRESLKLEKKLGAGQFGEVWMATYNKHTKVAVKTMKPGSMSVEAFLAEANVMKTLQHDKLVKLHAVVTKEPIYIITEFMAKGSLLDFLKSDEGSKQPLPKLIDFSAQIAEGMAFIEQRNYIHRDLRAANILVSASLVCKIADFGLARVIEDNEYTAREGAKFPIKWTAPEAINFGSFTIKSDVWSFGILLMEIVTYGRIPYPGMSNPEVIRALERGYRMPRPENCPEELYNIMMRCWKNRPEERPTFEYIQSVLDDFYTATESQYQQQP
# FGFR1, sequence (P11362 whole entry, looked up): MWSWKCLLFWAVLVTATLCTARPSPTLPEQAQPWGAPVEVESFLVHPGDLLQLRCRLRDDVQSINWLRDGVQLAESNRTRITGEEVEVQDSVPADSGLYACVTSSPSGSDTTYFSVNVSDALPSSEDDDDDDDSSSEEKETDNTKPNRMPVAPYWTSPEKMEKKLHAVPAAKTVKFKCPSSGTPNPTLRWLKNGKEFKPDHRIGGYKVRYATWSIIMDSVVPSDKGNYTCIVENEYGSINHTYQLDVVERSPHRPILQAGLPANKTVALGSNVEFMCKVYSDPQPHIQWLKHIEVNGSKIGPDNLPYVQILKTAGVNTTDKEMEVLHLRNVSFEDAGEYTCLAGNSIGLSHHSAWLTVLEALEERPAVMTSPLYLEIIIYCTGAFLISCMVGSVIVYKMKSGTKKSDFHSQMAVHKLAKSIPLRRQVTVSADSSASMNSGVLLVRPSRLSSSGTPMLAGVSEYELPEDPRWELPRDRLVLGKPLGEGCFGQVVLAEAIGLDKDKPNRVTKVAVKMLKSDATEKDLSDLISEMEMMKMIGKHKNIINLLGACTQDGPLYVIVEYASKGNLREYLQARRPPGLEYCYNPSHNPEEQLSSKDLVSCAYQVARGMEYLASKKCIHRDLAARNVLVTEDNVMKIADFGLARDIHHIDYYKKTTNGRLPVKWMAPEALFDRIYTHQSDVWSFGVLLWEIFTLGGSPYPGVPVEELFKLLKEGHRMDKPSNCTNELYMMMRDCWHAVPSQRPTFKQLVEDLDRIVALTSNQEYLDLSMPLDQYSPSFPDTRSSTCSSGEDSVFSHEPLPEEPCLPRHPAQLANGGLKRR
# Fyn, sequence (P06241 whole entry, looked up): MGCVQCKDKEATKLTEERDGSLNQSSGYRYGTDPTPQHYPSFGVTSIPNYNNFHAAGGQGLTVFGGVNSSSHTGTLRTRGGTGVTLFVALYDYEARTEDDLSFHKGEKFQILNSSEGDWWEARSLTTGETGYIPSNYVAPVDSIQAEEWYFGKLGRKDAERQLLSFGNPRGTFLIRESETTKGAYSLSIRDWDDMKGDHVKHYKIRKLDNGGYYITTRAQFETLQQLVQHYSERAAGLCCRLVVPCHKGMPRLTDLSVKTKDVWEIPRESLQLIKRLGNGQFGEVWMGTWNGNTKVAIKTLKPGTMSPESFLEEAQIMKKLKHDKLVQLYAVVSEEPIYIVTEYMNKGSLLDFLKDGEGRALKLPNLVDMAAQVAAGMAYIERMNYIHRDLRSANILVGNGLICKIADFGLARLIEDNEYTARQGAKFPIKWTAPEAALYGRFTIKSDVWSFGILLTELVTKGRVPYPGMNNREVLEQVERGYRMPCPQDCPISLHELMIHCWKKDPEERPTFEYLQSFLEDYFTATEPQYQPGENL
# FGFR3, sequence (P22607 whole entry, looked up): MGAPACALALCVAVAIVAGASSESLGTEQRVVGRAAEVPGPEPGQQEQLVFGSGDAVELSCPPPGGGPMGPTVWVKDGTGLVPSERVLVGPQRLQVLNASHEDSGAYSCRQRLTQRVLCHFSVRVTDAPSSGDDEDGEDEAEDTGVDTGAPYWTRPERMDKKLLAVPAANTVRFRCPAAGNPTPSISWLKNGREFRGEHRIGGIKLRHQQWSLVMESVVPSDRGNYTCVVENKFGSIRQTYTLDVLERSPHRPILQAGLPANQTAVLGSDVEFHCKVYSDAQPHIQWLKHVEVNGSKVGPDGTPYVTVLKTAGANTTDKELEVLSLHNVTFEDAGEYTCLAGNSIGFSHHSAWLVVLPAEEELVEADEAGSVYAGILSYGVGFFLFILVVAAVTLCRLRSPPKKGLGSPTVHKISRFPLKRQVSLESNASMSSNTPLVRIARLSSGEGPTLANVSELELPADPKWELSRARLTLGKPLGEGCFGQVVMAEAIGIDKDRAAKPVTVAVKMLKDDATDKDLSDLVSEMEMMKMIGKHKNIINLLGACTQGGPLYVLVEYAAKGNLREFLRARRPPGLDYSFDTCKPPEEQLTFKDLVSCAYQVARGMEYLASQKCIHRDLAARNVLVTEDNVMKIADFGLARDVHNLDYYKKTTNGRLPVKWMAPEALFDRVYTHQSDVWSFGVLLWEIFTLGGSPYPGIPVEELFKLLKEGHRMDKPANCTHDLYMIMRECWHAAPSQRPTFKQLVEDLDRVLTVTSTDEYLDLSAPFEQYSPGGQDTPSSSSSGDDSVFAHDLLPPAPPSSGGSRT
SH2 binding enrichment (SHP2-C SH2),SH2 binding enrichment (c-Src SH2),SH2 binding enrichment (Grb2 SH2),Sequence,phosphorylation enrichment (EPHB2),phosphorylation enrichment (Fer (mouse)),phosphorylation enrichment (EPHB1),phosphorylation enrichment (Fes),phosphorylation enrichment (Fyn),phosphorylation enrichment (Jak2),phosphorylation enrichment (AncSZ),phosphorylation enrichment (MERTK),phosphorylation enrichment (FGFR3),phosphorylation enrichment (c-Abl (mouse)),phosphorylation enrichment (FGFR1),phosphorylation enrichment (Hck),phosphorylation enrichment (c-Src)
0.633,0.51,1.01,ANAFIYDVQLP [L1CAM_Y420_V421D_YF],1.3,1.19,1.69,0.938,6.97,0.849,1.1,7.43,0.627,0.715,0.639,4.65,4.96
1.08,1.3,0.818,ANRNVYEVEPT [MEGF10_Y1075],0.5,0.473,0.451,0.755,6.32,0.63,0.787,0.476,0.47,0.6,0.404,0.842,4
0.693,4.4,0.965,ARSHIYTLASC [MEFV_Y741_F743L],0.58,0.657,0.598,1.13,2.13,0.802,1.05,1.17,0.68,0.803,0.541,0.95,2.07
0.625,0.861,1.11,ATARPYRPFII [LRP5_Y1528_YF],0.469,0.406,0.356,0.61,0.359,0.589,0.465,0.469,0.566,1.05,0.402,0.405,0.389
0.884,0.773,1.39,RVGVDYEGGGC [PLOD1_Y675],,,,,,0.377,,,,0.239,,,0.287

# Second part, the sequence before the results:
Sequence,SH2 binding enrichment (SHP2-C SH2),SH2 binding enrichment (c-Src SH2),SH2 binding enrichment (Grb2 SH2),phosphorylation enrichment (EPHB2),phosphorylation enrichment (Fer (mouse)),phosphorylation enrichment (EPHB1),phosphorylation enrichment (Fes),phosphorylation enrichment (Fyn),phosphorylation enrichment (Jak2),phosphorylation enrichment (AncSZ),phosphorylation enrichment (MERTK),phosphorylation enrichment (FGFR3),phosphorylation enrichment (c-Abl (mouse)),phosphorylation enrichment (FGFR1),phosphorylation enrichment (Hck),phosphorylation enrichment (c-Src)
ALRASYTPSPV [ESS2_Y418_A423V],0.557,0.418,0.67,0.53,0.424,0.366,0.723,0.39,0.909,0.847,0.435,0.502,0.945,0.32,0.458,0.678
AMCVCYDGVEV [ADAMTSL2_Y594_R593C],0.589,0.815,0.736,0.589,1.41,0.585,1.31,0.68,1.03,1.42,0.41,0.882,0.816,0.511,0.655,1.02
ANNPLYKEATP [ITGB3_Y773_S778P],0.763,0.471,0.869,0.533,0.372,0.45,0.764,0.402,0.657,0.58,0.521,0.479,0.623,0.41,0.4,0.374
ANYTEYVATRW [CDKL5_Y171],0.998,0.515,0.915,9.4,0.601,8.12,0.96,0.945,0.737,1.04,1.05,2.27,0.948,2.97,0.886,1.11
ANYTEYVATSW [CDKL5_Y171_R175S],0.665,0.592,0.874,8.89,0.555,7.89,0.867,0.722,0.897,1.34,0.815,2.82,0.812,3.44,0.672,0.763
APSHAYHGGVL [ANO1_Y981],0.501,0.629,0.881,0.336,0.502,0.371,0.494,0.382,0.496,0.52,0.381,0.427,0.505,0.626,0.5,0.475
ARAGEYGAEAL [HBA1_Y25_H21R],0.667,0.487,0.923,0.469,0.383,0.465,0.829,0.655,0.697,0.866,0.379,0.524,0.571,0.473,0.432,0.396
ARVANYQRDGP [CAT_Y386],0.342,0.32,0.606,0.406,0.394,0.564,0.607,0.436,0.486,0.785,0.574,0.526,0.496,0.524,0.386,0.545
ARVDTYCRHNY [HLA-DRB1_Y107_A103R],0.755,0.752,1.09,0.583,0.812,0.6,1.09,0.552,0.798,0.825,0.538,0.698,0.797,0.582,0.502,0.468
ASFGPNTRVQS [FOXL2_Y258_Y258N_YF],0.267,0.542,0.8,0.399,0.447,0.445,0.619,0.466,0.565,0.567,0.365,0.442,0.525,0.479,0.433,0.394
ATHSRYRLNDY [CLDN14_Y233_G232R],0.563,0.682,0.744,0.371,0.37,0.484,0.735,0.442,0.406,0.562,0.459,0.468,0.476,0.387,0.505,0.417
DCPASYKKKSM [PDGFRA_Y768_R764C],,,,0.189,0.384,0.591,0.323,0.283,0.168,0.394,0.363,0.202,0.337,0.416,0.368,0.253

# — the supplement of paper PMC10065799, “High-throughput profiling of sequence recognition by tyrosine kinases and SH2 domains using bacterial peptide display” (eLife, 2023)
